# In PMC10958042:
# B1: ATGL (PNPLA2, patatin-like phospholipase domain-containing protein 2), human, full length / perilipin-5, mouse (mPlin5) (parent)
# chain 1: MFPREKTWNISFAGCGFLGVYYVGVASCLREHAPFLVANATHIYGASAGALTATALVTGVCLGEAGAKFIEVSKEARKRFLGPLHPSFNLVKIIRSFLLKVLPADSHEHASGRLGISLTRVSDGENVIISHFNSKDELIQANVCSGFIPVYCGLIPPSLQGVRYVDGGISDNLPLYELKNTITVSPFSGESDICPQDSSTNIHELRVTNTSIQFNLRNLYRLSKALFPPEPLVLREMCKQGYRDGLRFLQRNGLLNRPNPLLALPPARPHGPEDKDQAVESAQAEDYSQLPGEDHILEHLPARLNEALLEACVEPTDLLTTLSNMLPVRLATAMMVPYTLPLESALSFTIRLLEWLPDVPEDIRWMKEQTGSICQYLVMRAKRKLGRHLPSRLPEQVELRRVQSLPSVPLSCAAYREALPGWMRNNLSLGDALAKWEECQRQLLLGLFCTNVAFPPEALRMRAPADPAPAPADPASPQHQLAGPAPLLSTPAPEARPVIGALGL
# chain 2: MDQRGEDTTLAPHSRMSGDQTAQDPGSSLGELDQQNVVNRVVALPLVKATCTAVSSAYNSAKDRHPLLGSACRLAEHCVCSVTTCALDHAQPLLEHLQPQLATVNDLACRGLDKLEEKLPFLQQPSDMVVTSAKDTVAKSVTGMVDLAQRGRRWSGELRRSMSQAMDMVLGKSEKLVDRFLPMTEAELAVLAAEAEGPEVGTVEEQRQQQGYFVRLGSLSARLRHLAYEHSLGKLRQSKHRTQEMLAQLQETLELIQHMQRGASPSPTFHPPKTQELWGSWSPCLENGRSHSEVELETLALSRSLTLELQNAVDALAGCVRGLPPSAQAKVAEVQRSVDALQATFADAHCLGDVAPTALAEGRGSVARAHACVDEFLDLVLRAMPLPWLVGPFAPILVEQSEPLINLATCVDEVVGDPDPRWAHMDWPAQKRAWEAESADPGGQEAEPPRGQGKHTMMPELDF
# B2: ATGL (PNPLA2, patatin-like phospholipase domain-containing protein 2), human, full length / CGI-58 (ABHD5, 1-acylglycerol-3-phosphate O-acyltransferase ABHD5), human (parent)
# chain 1: B1 chain 1
# chain 2: MAAEEEEVDSADTGERSGWLTGWLPTWCPTSISHLKEAEEKMLKCVPCTYKKEPVRISNGNKIWTLKFSHNISNKTPLVLLHGFGGGLGLWALNFGDLCTNRPVYAFDLLGFGRSSRPRFDSDAEEVENQFVESIEEWRCALGLDKMILLGHNLGGFLAAAYSLKYPSRVNHLILVEPWGFPERPDLADQDRPIPVWIRALGAALTPFNPLAGLRIAGPFGLSLVQRLRPDFKRKYSSMFEDDTVTEYIYHCNVQTPSGETAFKNMTIPYGWAKRPMLQRIGKMHPDIPVSVIFGARSCIDGNSGTSIQSLRPHSYVKTIAILGAGHYVYADQPEEFNQKVKEICDTVD
# Variants of: B1
# Assay: LUMIER: Protein A-ATGL variant and firefly luciferase-partner co-expressed in HEK293T, lysates immunoprecipitated on IgG-coated plates, co-precipitated partner measured as luciferase luminescence
# Settings: with perilipin-5, mouse (mPlin5), transient co-transfection, IgG-coated LUMITRAC plates, 2 h at 4 °C, three PBS washes, Bright-Glo luciferase reagent, triplicates per assay, two …, parent: 0.15, not graded, scale: log2 fold change of co-immunoprecipitated luminescence relative to wild-type ATGL within each experiment
row,Variant,screen value
1,chain 1 L62A,-0.2
2,chain 1 L62K,-0.0604
3,chain 1 E368A,-0.0206
4,chain 1 G16K,0.284
5,chain 1 N39E,-0.463
6,chain 1 F348E,0.152
7,chain 1 A104E,-0.161
8,chain 1 I70K,-0.962
9,chain 1 I70A,-1.37
10,chain 1 K92L,0.0605
11,chain 1 G189E,-1.35
12,chain 1 L178A,-0.0602
13,chain 1 H109E,0.319
14,chain 1 A453E,0.182
15,chain 1 G66L,-0.614
16,chain 1 G66A,-0.448
17,chain 1 E314A,0.0215
18,chain 1 G59L,-0.841
19,chain 1 G153A,-0.676
20,chain 1 G153K,-1.05
21,chain 1 L102K,-0.208
22,chain 1 L261E,-0.706
23,chain 1 K275A,-0.0642
24,chain 1 F35E,-0.313
25,chain 1 F35A,-0.563

# Results, then the variant that gave them:
row,screen value,Variant
1,0.011,chain 1 Q140K
2,-0.185,chain 1 Q140A
3,-0.751,chain 1 N180L
4,-0.213,chain 1 R351L
5,0.184,chain 1 Y415A
6,0.0372,chain 1 T41A
7,-0.303,chain 1 P103K
8,-0.296,chain 1 R163K
9,-0.294,chain 1 V127L
10,-0.669,chain 1 P156K
11,-0.695,chain 1 P258L
12,-0.912,chain 1 V328A
13,-0.0461,chain 1 S158E
14,-0.0252,chain 1 S158A
15,-0.363,chain 1 S106K
16,-0.512,chain 1 Q396A
17,-1.17,chain 1 P86K
18,0.105,chain 1 R329E
19,-0.249,chain 1 S87A
20,-0.403,chain 1 S87E
21,0.649,chain 1 R113K
22,-0.305,chain 1 R113L

# Same assay, conditions: with perilipin-5, mouse (mPlin5), transient co-transfection, IgG-coated LUMITRAC plates, 2 h at 4 °C, three PBS washes, Bright-Glo luciferase reagent, triplicates per assay, two …, parent: 0.46, not graded, scale: log2 fold change of co-immunoprecipitated luminescence relative to wild-type ATGL within each experiment
row,Variant,screen value
1,chain 1 L62A,-0.0199
2,chain 1 L62K,0.482
3,chain 1 E368A,-0.0325
4,chain 1 G16K,0.354
5,chain 1 N39E,-0.463
6,chain 1 F348E,-0.58
7,chain 1 A104E,-0.459
8,chain 1 I70K,-0.924
9,chain 1 I70A,-0.876
10,chain 1 K92L,0.185
11,chain 1 L178A,-0.257
12,chain 1 H109E,-0.248
13,chain 1 A453E,0.52
14,chain 1 G66L,-0.664
15,chain 1 G66A,0.0231
16,chain 1 E314A,0.421
17,chain 1 G59L,-0.187
18,chain 1 G153A,-0.506
19,chain 1 G153K,-0.867
20,chain 1 L102K,-0.846
21,chain 1 L261E,-0.846
22,chain 1 K275A,-0.483
23,chain 1 F35E,-0.0352
24,chain 1 F35A,-0.0452

# Next, values leading:
row,screen value,Variant
1,-0.224,chain 1 Q140K
2,-0.0429,chain 1 Q140A
3,-0.918,chain 1 N180L
4,-0.456,chain 1 R351L
5,0.247,chain 1 Y415A
6,0.0895,chain 1 T41A
7,-0.674,chain 1 P103K
8,0.00396,chain 1 R163K
9,-0.0973,chain 1 V127L
10,-1.08,chain 1 P156K
11,-1.24,chain 1 P258L
12,-0.985,chain 1 V328A
13,0.172,chain 1 S158E
14,0.0162,chain 1 S158A
15,-0.539,chain 1 S106K
16,-0.623,chain 1 Q396A
17,-1.16,chain 1 P86K
18,-0.51,chain 1 R329E
19,-0.228,chain 1 S87A
20,-0.318,chain 1 S87E
21,0.667,chain 1 R113K
22,0.191,chain 1 R113L

# Same assay, conditions: with perilipin-5, mouse (mPlin5), transient co-transfection, IgG-coated LUMITRAC plates, 2 h at 4 °C, three PBS washes, Bright-Glo luciferase reagent, triplicates per assay, two …, parent: 0.46, not graded, value at the no-binding floor (a bound), scale: log2 fold change of co-immunoprecipitated luminescence relative to wild-type ATGL within each experiment
row,screen value,Variant
1,-1.51,chain 1 G189E

# Variants of: B2
# Assay: as above
# Settings: with CGI-58 (ABHD5, 1-acylglycerol-3-phosphate O-acyltransferase ABHD5), transient co-transfection, IgG-coated LUMITRAC plates, 2 h at 4 °C, three PBS washes, Bright-Glo luciferase reagent, triplicates per assay, two …, parent: 0.32, not graded, scale: log2 fold change of co-immunoprecipitated luminescence relative to wild-type ATGL within each experiment
row,Variant,screen value
1,chain 1 G66A,-0.000473
2,chain 1 G66L,0.0179
3,chain 1 H109E,0.0522
4,chain 1 F35E,0.146
5,chain 1 F35A,-0.0512
6,chain 1 K92L,-0.67

# Next, values leading:
row,screen value,Variant
1,-0.794,chain 1 P156K
2,-0.412,chain 1 R329E
3,0.351,chain 1 R163K
4,-0.182,chain 1 S106K

# Same assay, conditions: with CGI-58 (ABHD5, 1-acylglycerol-3-phosphate O-acyltransferase ABHD5), transient co-transfection, IgG-coated LUMITRAC plates, 2 h at 4 °C, three PBS washes, Bright-Glo luciferase reagent, triplicates per assay, two …, parent: 0.45, not graded, scale: log2 fold change of co-immunoprecipitated luminescence relative to wild-type ATGL within each experiment
row,Variant,screen value
1,chain 1 G66A,0.0899
2,chain 1 G66L,-0.54
3,chain 1 H109E,-0.021
4,chain 1 F35E,0.336
5,chain 1 F35A,-0.207
6,chain 1 K92L,-0.328

# Continued, values first:
row,screen value,Variant
1,-0.596,chain 1 P156K
2,-0.601,chain 1 R329E
3,0.226,chain 1 R163K
4,-0.557,chain 1 S106K
5,-0.679,chain 1 N180L

# Same assay, conditions: with CGI-58 (ABHD5, 1-acylglycerol-3-phosphate O-acyltransferase ABHD5), transient co-transfection, IgG-coated LUMITRAC plates, 2 h at 4 °C, three PBS washes, Bright-Glo luciferase reagent, triplicates per assay, two …, parent: 0.32, not graded, value at the no-binding floor (a bound), scale: log2 fold change of co-immunoprecipitated luminescence relative to wild-type ATGL within each experiment
row,screen value,Variant
1,-1.8,chain 1 N180L
